Experimental findings from publication PMC4613707 are described below.

One experiment has as its target FLAG–TSP-5-1C (human). Description: SDS/PAGE under non-reducing and reducing conditions with immunoblot; FLAG-tagged proteins immunoprecipitated with anti-FLAG M2 on rProtein G agarose from conditioned media of transfected COS7 cells, washed in Tris-buffered saline with 2 mM CaCl2, eluted by boiling in SDS sample buffer with or without 100 mM DTT; oligomers formed in the cells. Background: Immunoblotting shows a protein as a band on a membrane.

In another experiment the target is FLAG–TSP5 (human) (UniProt P49747). The description is as above.
Experiment [1] addresses FLAG–mRFP–TSP-5-1C (human). Description: SDS/PAGE under non-reducing and reducing conditions with immunoblot; mRFP-tagged proteins collected with RFP-Trap_A beads from conditioned media of transfected COS7 cells, eluted by boiling in SDS sample buffer with or without 100 mM DTT; immunoblot for RFP (and FLAG, result not shown); oligomers formed in the cells.

FLAG–TSP5, P49747 21-757 (natural protein; other documents disagree on this pair), sequence (P49747 21-757): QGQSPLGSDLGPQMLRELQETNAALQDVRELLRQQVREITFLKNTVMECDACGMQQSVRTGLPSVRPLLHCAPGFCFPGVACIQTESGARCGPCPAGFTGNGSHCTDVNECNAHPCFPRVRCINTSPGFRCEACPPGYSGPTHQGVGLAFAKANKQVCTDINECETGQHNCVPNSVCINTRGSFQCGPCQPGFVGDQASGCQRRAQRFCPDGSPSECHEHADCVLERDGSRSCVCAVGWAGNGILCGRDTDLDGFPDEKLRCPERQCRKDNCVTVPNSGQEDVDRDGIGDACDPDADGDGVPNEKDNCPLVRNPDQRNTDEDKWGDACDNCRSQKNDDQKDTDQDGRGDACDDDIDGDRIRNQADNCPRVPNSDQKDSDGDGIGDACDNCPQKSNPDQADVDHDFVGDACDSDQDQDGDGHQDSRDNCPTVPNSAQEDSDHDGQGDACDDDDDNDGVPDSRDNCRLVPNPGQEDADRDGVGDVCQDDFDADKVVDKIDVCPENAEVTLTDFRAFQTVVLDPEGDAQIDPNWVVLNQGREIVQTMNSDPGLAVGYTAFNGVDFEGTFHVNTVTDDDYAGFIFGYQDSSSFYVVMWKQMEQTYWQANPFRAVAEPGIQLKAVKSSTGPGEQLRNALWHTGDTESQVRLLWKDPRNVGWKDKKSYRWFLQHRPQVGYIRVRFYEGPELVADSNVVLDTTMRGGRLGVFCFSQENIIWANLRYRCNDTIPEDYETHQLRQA

Broadly, the stoichiometry N is a count of units in the complex or per binding partner. The substance FLAG–TSP-5-1C gave a stoichiometry N with FLAG–TSP-5-1C (human) of 5.
Substance “FLAG–TSP5, P49747 21-757 (natural protein; other documents disagree on this pair)” returned a stoichiometry N with FLAG–TSP5 (human) of 5.
FLAG–mRFP–TSP-5-1C: the stoichiometry N in experiment [1] is 5.
